The values below come from patent US20210101970A1 (Pfizer, published 2021).

The target of assay [1] is T1, cynomolgus monkey CXCR5 (cynomolgus monkey, UniProt P32302 1-372 (human entry)).
T1 construct: also called cynoCXCR5; NHP CXCR5
T1 chain: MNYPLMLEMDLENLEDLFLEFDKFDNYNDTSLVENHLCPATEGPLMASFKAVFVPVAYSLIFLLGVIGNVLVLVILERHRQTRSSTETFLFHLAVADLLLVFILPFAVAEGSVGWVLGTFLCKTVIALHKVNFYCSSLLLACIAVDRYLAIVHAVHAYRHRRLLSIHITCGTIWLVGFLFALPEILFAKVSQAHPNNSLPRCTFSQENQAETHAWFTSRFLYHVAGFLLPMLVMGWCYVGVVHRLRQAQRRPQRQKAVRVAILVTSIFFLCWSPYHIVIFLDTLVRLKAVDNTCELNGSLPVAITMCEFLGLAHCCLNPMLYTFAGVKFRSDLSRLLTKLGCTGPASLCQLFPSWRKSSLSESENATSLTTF
Kind of assay: flow cytometry, cynomolgus PBMC B cells. The procedure, abridged:
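Human and cynomolgus PBMCs stained with 4-fold serial antibody dilutions (11 points from 5000 ng/mL) plus Fc block, 2 h on ice, then lineage markers and anti-human Ig secondary 30 min at 4 °C. gMFI of binding population read by flow cytometry; EC50 from sigmoidal fit of equilibrium binding curves.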

The target of assay [2] is T2, CXCR3 (human, UniProt P49682 1-368).
T2 construct: whole, on cells
T2 sequence (looked up): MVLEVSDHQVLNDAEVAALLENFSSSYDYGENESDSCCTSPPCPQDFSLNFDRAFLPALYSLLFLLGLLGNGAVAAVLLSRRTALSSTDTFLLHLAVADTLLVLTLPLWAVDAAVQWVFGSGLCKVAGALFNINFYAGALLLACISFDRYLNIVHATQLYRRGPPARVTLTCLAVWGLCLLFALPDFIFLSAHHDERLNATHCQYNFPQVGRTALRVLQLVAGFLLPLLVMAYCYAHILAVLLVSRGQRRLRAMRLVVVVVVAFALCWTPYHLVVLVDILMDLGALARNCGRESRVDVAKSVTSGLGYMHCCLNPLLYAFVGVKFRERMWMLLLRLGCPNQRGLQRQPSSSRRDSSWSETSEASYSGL
Kind of assay: flow cytometry (GMFI) on fixed CXCR3 cells, chimeric antibody, goat anti-human PE. As for the experimental part: To determine the specificity of the antibodies for CXCR5, the binding of the antibodies to cells expressing other […] was assessed. Briefly, FlowCellect chemokine receptor cell lines expressing CXCR1, CXCR2, or CXCR3 (EMD Millipore, Billerica, Mass.), and Jurkats (ATCC, Manassas, Va.), which express CXCR4, were stained with 5 μg/ml or 10 μg/ml of each anti-CXCR5 chimeric antibody. The cells were then incubated with goat anti-human conjugated with PE (Southern Biotech, Birmingham, Ala.) prior to analysis by flow cytometry using a FACSVerse Analyzer (BD Biosciences, Franklin Lakes, N.J.).

Assay [3] deals with T1, cynomolgus monkey CXCR5. As to the kind of experiment: cell-based or functional assay.
For assay [4], the target named is T3, mouse CXCR5 (mouse, UniProt Q04683 1-374).
T3 construct: also called mCXCR5
T3 sequence: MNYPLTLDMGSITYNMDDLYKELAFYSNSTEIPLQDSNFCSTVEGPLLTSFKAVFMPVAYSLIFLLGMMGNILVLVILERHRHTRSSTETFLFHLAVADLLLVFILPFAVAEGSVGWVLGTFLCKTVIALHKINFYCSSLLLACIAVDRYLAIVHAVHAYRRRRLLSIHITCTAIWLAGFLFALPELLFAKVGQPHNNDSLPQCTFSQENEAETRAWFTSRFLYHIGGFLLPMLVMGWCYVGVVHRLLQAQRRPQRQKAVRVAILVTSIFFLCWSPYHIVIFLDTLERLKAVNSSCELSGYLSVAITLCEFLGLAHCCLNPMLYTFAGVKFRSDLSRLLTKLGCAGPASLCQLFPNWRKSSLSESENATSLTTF
Kind of assay: flow cytometry on cells expressing mouse CXCR5.

In assay [5] the target is T4, human CXCR5 (human, UniProt P32302 1-372).
T4 construct: also called hCXCR5; C-X-C chemokine receptor type 5
T4 sequence: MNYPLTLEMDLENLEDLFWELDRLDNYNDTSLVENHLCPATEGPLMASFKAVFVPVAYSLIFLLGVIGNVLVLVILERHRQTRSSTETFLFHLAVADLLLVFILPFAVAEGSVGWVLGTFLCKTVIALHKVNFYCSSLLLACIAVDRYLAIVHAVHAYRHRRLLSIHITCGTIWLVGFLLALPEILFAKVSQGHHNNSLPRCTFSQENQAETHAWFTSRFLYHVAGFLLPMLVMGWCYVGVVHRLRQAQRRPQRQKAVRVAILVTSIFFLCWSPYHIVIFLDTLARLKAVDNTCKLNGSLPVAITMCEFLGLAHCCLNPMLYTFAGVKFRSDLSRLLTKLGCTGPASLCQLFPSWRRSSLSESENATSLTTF
Kind of assay: flow cytometry, B cells from human PBMCs (FIG. 5); afucosylated.

B1: Chimeric 11G2 (antibody, human IgG1, kappa, V domains shown)
VH: EVKLVESGGGLVQPGGSLRLSCATSGFTFTDFYMSWVRQPPGRALEWLGFIRNKANGYTTEYSASVKGRFTISRDNSQSILYLQMNTLRAGDSATYYCVRVYGSTLHYWGQGTILTVSS
VL: DVVVTQSPDSLAVSLGQRATISCRASESVEYHGTSLMHWYQQKPGQPPKLLIYAASNVESGVPARFSGSGSGTDFSLNIHPVEEGDIAMYFCQQSRKVPWTFGGGTKLEIKR
notes: mouse V regions on human IgG1/kappa; also called 11G2 (chimeric)
Molecule B1 displayed an EC50 in assay [1] of 0.00695 nM. Further, in assay [2], the binding result is recorded as “no binding (tested: 5 or 10 µg/ml (not on the sheet))”. Moreover, the “ADCC Activity Average EC50, NHP B Cells” value in assay [3] is 0.115 nM.

B2: Afucosyl humanized 11G2 154/155 (antibody, human IgG1, kappa, V domains shown)
VH: EVQLVESGGGLVQPGGSLRLSCAASGFTFTDFYMSWVRQAPGKGLEWVGFIRNKANGYTTEYSASVKGRFTISRDNAKNSLYLQMNSLRAEDTAVYYCARVYGSTLHYWGQGTLVTVSS
VL: DIQMTQSPSSLSASVGDRVTITCRASESVEYHGTSLMHWYQQKPGKAPKLLIYAASNVESGVPSRFSGSGSGTDFTLTISSLQPEDFATYYCQQSRKVPWTFGQGTKVEIKR
modifications: afucosylated Fc glycan (Asn297)
notes: also called afucosyl h11G2 XC154/XC155; afucosylated h11G2 VL XC154/VH XC155
Consider B2, for which the EC50 in assay [1] came out at 0.00132 nM; in assay [5] it was 0.0119 nM. Moreover, the binding result in assay [4] is given as “no binding”. Also, the “ADCC Activity Average EC50, NHP B Cells” value in assay [3] is 0.0153 nM.

B3: 2C9 (reference antibody) (antibody, human IgG1, kappa, V domains shown)
VH: EVQLVESGGGLVKPGGSLRLSCAASGFTFSTNAMNWVRQAPGKGLERVARIRSKSNNYATYYADSVKDRFTISRDDSKNTLYLQMNSLKTEDTAVYYCVTMIPFAYWGQGTLVTVSS
VL: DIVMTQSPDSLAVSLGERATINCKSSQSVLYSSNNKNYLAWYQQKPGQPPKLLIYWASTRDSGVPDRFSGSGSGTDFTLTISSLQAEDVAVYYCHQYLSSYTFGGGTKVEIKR
notes: fucosylated
Consider B3, for which the binding result in assay [4] is recorded as “no binding”.
